Key:
阴性对照蛋白BSA = target: T1, 阴性对照蛋白BSA (UniProt P02769 25-607); assay: single-phage ELISA, 100 ng/well coated protein
T1 construct: also called 对照BSA

人4-1BB胞外区蛋白(hu4-1BB ECD) = target: T2, 人4-1BB胞外区蛋白(hu4-1BB ECD) (human, UniProt Q07011 24-186); assay: single-phage ELISA, 100 ng/well coated 4-1BB
T2 construct: extracellular domain; also called 人4-1BB蛋白; 抗原4-1BB

T1 sequence (P02769 25-607 limits assumed): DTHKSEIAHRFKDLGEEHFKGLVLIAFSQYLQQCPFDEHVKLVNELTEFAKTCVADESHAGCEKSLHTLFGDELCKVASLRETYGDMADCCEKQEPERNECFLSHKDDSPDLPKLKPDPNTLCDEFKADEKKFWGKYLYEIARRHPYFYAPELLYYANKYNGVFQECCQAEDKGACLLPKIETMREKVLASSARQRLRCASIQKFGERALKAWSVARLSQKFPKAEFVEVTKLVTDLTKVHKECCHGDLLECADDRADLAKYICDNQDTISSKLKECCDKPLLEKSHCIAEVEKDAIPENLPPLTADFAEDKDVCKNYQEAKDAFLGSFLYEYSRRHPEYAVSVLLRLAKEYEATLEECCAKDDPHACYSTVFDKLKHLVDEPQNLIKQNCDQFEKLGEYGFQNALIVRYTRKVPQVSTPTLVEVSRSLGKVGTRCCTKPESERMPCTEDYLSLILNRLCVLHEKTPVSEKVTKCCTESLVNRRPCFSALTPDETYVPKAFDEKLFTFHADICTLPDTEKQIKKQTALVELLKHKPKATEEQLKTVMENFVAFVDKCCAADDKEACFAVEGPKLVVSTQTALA

binding result (阴性对照蛋白BSA): no binding
binding result (人4-1BB胞外区蛋白(hu4-1BB ECD)): binds
B1: 抗体(scFv)8F5 (scFv)
scFv: QVQLVQSGAEVKKPGASVKVSCKPSGYTFTSHYIHWVRQAPGQGLEWMGWINPNSGGTNYAQKFQGRVTMTRDTSISTAYMELSRLRSDDTAVYYCARDGGGMDVWGKGTMVTVSSGGGGSGGGGSGGGGSQSALTQPASVSGSPGQSITISCTGTSSDVGGYDFVSWYQHHPGKAPKLMIYGVANRPSGVSNRFSGSKSGNTASLTISGLQAEDDADYYCSSYSSTSTRYVFGTGTKVTVLG

Source: patent CN113621065A (WUHAN HSA BIND BIOTECHNOLOGY CO LTD, dated 2021)
